Source: patent US11529390B2, “PCSK9 inhibitory polypolypeptides and methods of use” (INSTITUT DE CARDIOLOGIE DE MONTREAL, priority 2015, dated 2022)

B1: SEQ ID. NO. 6: GRP94 CDB-CT domain, 148 aa, recombinant ~20 kDa protein purified from E. coli (protein)
chain: YGWSGNMERIMKAQAYQTGKDISTNYYASQKKTFEINPRHPLIRDMLRRIKEDEDDKTVLDLAVVLFETATLRSGYLLPDTKAYGDRIERMLRLSLNIDPDAKVEEEPEEEPEETAEDTTEDTEQDEDEEMDVGTDEEEETAKESTAE

Tests used:
[1] = tested on: PCSK9-mCherry internalization; assay: PCSK9-mCherry internalization in LDLR-EGFP transfected HepG2 cells, confocal microscopy; assay type: cell-based, human; settings: 10 nM recombinant protein, HepG2, overnight, versus control
Experimental: (§1) FIG. 5: SEQ ID NO. 67 blocks PCSK9 internalization and LDLR degradation. Recombinant SEQ ID NO. 67 was added to conditioned media obtained from HEK293 transfected with PCSK9-mCherry or in DMEM together with recombinant human PCSK9, rotated 4 h at 4° C. and added overnight on HepG2 cells as indicated. (a) Following 24 h post-transfection with LDLR-EGFP cDNA (SEQ. ID. NO. 69), HepG2 cells were incubated with PCSK9-mCherry without (−) or with 10 nM SEQ ID NO. 67. Fluorescent proteins were visualized in fixed cells by confocal microscopy. (b) Cells were incubated without or with 25 nM PCSK9 alone or with 0, 10, 25 or 100 nM SEQ ID NO. 67. Total LDLR, SEQ ID NO. 67, PCSK9 and β-actin protein levels were analyzed by immunoblotting in cell lysates and conditioned media as indicated. Data are representative of at least three independent experiments.
Huh-7 cells were washed three times with PBS, fixed with Bouin's solution (0.9% picric acid, 9% paraformaldehyde, 5% acetic acid/PBS) for 15 min. Following extensive PBS washes, cells were permeabilized with 0.1% Triton X-100/PBS for 10 min and incubated with 150 mM glycine to stabilize the aldehydes. […]

[2] = tested on: PCSK9-induced LDLR degradation; assay: PCSK9-induced LDLR degradation in HepG2 cells, extracellular addition, immunoblot; assay type: cell-based, human
Experimental: as §1
FIG. 7: SEQ ID NO. 6 prevents PCSK9-induced LDLR degradation. (a) Left; Coomassie staining of purified recombinant SEQ ID NO. 6 and PCSK9 separated by SDS-PAGE is shown. Right; HepG2 cells were incubated in DMEM without or with 0, 25, 100 or 250 nM SEQ ID NO. 6 alone or in presence of recombinant PCSK9. (b) HepG2 cells were transfected without (−) or with PCSK9-V5 in absence (−) or presence SEQ ID NO. 66 or SEQ ID NO. 46. Total LDLR, PCSK9, SEQ ID NO. 66, SEQ ID NO. 46 and β-actin protein levels were analyzed by immunoblotting in cell lysates and conditioned media as indicated. Data are representative of at least three independent experiments.
For Western blot analyses, SDS-polyacrylamide gels were blotted on nitrocellulose membranes (Cat. #162-0115, Bio-Rad), and blocked for 1 h in Tris-Buffered Saline-Tween 20 (TBS-T; 50 mM Tris-HCl, pH 7.5, 150 mM NaCl, 0.1% Tween 20) containing 5% non-fat dry milk. Membranes were then incubated overnight in TBS-T supplemented with 1% non-fat milk and indicated antibodies: rabbit anti-PCSK9 (1:2500, custom made, GenScript), goat anti-human or anti-mouse LDLR (1:1000; Cat. #AF2148 or #A2255, R&D Systems), rat anti-Grp94 (1:30,000), rabbit anti-GRP78 (1:2500; Cat. #ab21685, Abcam), rabbit anti-GFP (1:2000; Cat. #A11122, Life Sciences), mouse anti-V5-tag (1:5000; Cat. #A00641, GenScript), mouse anti-HA-tag (1:5000), rabbit anti-β-actin (1:5000; Cat. #A2066, Sigma-Aldrich). Appropriate HRP-conjugated secondary antibodies (1:10,000, GE healthcare) were used for detection using the Western Lightning Ultra chemiluminescence kit (Cat. #NE1112001EA, PerkinElmer) and BioFlex EC Films (Cat. #CLEC810, InterScience).
To validate this hypothesis, we therefore first tested the effect of extracellular SEQ ID. NO. […]
We next tested whether SEQ ID. […] (Poirier et al., 2009) As PCSK9 was also shown to induce LDLR degradation via an intracellular pathway, (Poirier et al., 2009) we evaluated to ability of SEQ ID. […]

PCSK9 binding to LDLR = target: T1, PCSK9 binding to LDLR (Homo sapiens, UniProt Q8NBP7); assay: In vitro PCSK9-LDLR competitive pull-down (immunoprecipitation with mAb-V5); settings: 1 μg PCSK9, 1 μg LDLR, preincubation 4 h
T1 construct: made in house; host or cells: HEK293T
Experimental: FIG. 6: SEQ ID NO. 6 reduces PCSK9 binding to LDLR in vitro. Left; Coomassie staining of His6 tag purified recombinant SEQ ID NO. 6 and PCSK9 produced as described in Material and Methods. Right; PCSK9-V5-His6 (1 μg) was incubated without (−) or with (+) recombinant SEQ ID NO. 6 (2 μg) in 500 μl of immune-precipitation (IP) buffer (PBS, 1 mM CaCl2, 1% Tween-20 and protease inhibitors) for 4 h at 4° C. on a rotator. Following incubation, 1 μg of recombinant human LDLR ectodomain was added together with 50 μl of A/G-agarose beads and 1 μg of mAb-V5 antibody and incubated with rotation overnight. Samples were then centrifuged at 3,000×g for 5 min and pellets washed three times with 1 ml IP buffer and rotated for 10 min 4° C. and resuspended in 2× Laemmli loading buffer. Samples were separated by SDS-PAGE and immune-blotted as indicated. Data are representative of two independent experiments.
NO. […] NO. 3 might be due to direct competition for PCSK9 binding to the LDLR. To test this hypothesis, we subcloned the SEQ ID. NO. 6 into the pET-24 bacterial expressing vector of which recombinant protein were retrieved from E. coli and purified by metal affinity and size exclusion chromatography. The homogeneity of purified SEQ ID. NO. 6(^˜20 kDa) and recombinant PCSK9 purified from conditioned media of HEK293 transfected cells were assessed by SDS-PAGE and coomassie staining (FIG. 6; left panels). […]

T1 sequence (Q8NBP7 153-692): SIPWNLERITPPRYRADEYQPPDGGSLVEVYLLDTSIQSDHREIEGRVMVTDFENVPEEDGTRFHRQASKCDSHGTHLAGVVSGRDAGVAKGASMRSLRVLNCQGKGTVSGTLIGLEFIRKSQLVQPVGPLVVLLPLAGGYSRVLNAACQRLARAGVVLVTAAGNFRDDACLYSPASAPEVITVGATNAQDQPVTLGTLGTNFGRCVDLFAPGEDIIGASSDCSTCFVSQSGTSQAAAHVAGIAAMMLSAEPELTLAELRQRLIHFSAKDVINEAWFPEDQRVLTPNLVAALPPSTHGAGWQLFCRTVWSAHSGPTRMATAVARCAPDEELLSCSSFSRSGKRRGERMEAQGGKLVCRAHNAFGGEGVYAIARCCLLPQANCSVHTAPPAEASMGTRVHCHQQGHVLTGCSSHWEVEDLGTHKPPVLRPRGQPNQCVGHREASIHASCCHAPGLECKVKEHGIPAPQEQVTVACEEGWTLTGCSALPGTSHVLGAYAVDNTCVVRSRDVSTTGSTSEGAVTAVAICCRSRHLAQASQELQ
T1 sequence (Q8NBP7 31-152 partner limits assumed): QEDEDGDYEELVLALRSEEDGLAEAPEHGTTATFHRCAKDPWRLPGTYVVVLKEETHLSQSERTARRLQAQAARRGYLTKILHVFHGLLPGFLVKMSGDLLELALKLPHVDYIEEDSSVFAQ

Molecule | PCSK9-mCherry internalization in LDLR-EGFP expressing cells [1] | Effect on PCSK9-induced LDLR degradation ([2]; HepG2, overnight, 25 nM PCSK9, 0, 10, 25 or 100 nM protein) | Block of exogenously added PCSK9 ([2]; 250 nM, HepG2, exogenous PCSK9 ~6-fold endogenous levels) | Concentration at which maximum effect on total LDLR protein levels was saturated ([2]; HepG2, overnight) | Total LDLR protein levels ([2]; HepG2, overnight, extracellular addition, endogenously secreted PCSK9) | LDLR pull-down with PCSK9 (PCSK9 binding to LDLR)
SEQ ID. NO. 67: full-length recombinant GRP94 obtained from Enzo Life Sciences (Cat. #ADI-SPP-766) | significantly reduced | reverted in a dose-dependent manner | – | – | – | –
B1 | – | – | not sufficient | ≤ 25 nM | significantly increases | partially inhibited
